Laboratory results taken from patent US7172876B2, “Method of screening therapeutic agents for nerve degeneration associated diseases” (Takeda Pharmaceutical Company Limited, priority 2002, dated 2007).
Numbering of substitutions follows the chain as printed. Ends that are not written are not given here. * marks the point of attachment. For = O=C*

What was measured:
[1] = target: T1, FPRL1 (Homo sapiens, UniProt P25090); conditions: reported in the literature; cited from earlier work
T1 sequence (P25090 1-351): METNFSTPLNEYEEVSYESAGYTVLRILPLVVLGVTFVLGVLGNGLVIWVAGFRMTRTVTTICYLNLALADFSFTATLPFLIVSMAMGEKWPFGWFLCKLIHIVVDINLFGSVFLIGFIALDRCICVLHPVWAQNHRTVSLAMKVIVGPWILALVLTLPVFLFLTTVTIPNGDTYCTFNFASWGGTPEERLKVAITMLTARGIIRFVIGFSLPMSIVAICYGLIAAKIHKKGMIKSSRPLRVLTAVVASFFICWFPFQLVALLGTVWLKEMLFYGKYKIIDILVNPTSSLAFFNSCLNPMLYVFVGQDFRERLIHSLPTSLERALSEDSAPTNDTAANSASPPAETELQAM

[2] = target: T2, FPRL2 (Homo sapiens, UniProt P25089); conditions: reported in the literature; cited from earlier work
T2 sequence (P25089 1-353): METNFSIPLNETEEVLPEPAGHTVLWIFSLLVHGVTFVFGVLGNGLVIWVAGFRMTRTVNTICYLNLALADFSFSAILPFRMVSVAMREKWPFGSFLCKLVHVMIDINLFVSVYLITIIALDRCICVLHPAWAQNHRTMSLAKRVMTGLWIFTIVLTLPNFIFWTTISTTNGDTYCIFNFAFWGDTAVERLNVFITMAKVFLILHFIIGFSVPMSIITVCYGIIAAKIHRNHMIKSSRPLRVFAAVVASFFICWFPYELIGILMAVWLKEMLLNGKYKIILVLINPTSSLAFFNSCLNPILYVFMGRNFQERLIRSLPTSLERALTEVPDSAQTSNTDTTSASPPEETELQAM

[3] = target: T3, hFPRL2 (Homo sapiens, UniProt P25089); test: Inhibition of forskolin-increased intracellular cAMP in human FPRL2-expressing CHO cells; type: cell-based; conditions: 1 μM forskolin
T3 construct: expressed in transfected cells; host or cells: CHO cells (clone No. 17)
T3 sequence (P25089 1-353 G94A/S211T/D338H): T2 sequence (P25089 1-353) with G94A, S211T, D338H
Description: (§1) CHO cells expressing each receptor were washed with an assay medium (HBSS (GibcoBRL) supplemented with 0.1% bovine serum albumin and 0.2 mM IBMX) and then cultured at 37° C. in 5% CO2 for 30 minutes. Humanin (Peptide Research Laboratory, Co.) or related substances diluted at each concentration with the assay buffer were added thereto, and then forskolin was added at a final concentration of 1 μM. The cells were cultured at 37° C. in 5% CO2 for 30 minutes. The culture supernatant was discarded, and the amount of cAMP in the cells was measured with a plate reader (ARVO sx multi-label counter, manufactured by Wallac) according to a protocol of a cAMP screen kit (Applied Biosystems). Assuming that the amount of cAMP produced in the cells to which 1 μM forskolin had been added was 100% and the amount of cAMP produced in the cells to which forskolin had not been added was 0%, the amount of cAMP upon addition of each agonist is shown in %. The concentration at which the amount of cAMP produced was inhibited by 50% (EC50) was calculated from logit-log plotting.

[4] = test system: rFPRL1; test: Inhibition of forskolin-increased intracellular cAMP in rat FPRL1-expressing CHO cells; type: cell-based; conditions: 1 μM forskolin
Description: as §1

[5] = target: T1, FPRL1; test: Inhibition of forskolin-increased intracellular cAMP in human FPRL1-expressing CHO cells; type: cell-based; set-up: expressed in transfected cells; host or cells: CHO cells (clone No. 8; the title also lists a 'Human FPRL1' clone No. 14); conditions: 1 μM forskolin
[6] = target: T4, mFPRL2 (Mus musculus, UniProt O88536); test: Inhibition of forskolin-increased intracellular cAMP in mouse FPRL2-expressing CHO cells; type: cell-based; conditions: 1 μM forskolin
T4 construct: expressed in transfected cells; host or cells: CHO cells (clone No. 15); expression vector pAKKO-111H
T4 sequence (O88536 1-351): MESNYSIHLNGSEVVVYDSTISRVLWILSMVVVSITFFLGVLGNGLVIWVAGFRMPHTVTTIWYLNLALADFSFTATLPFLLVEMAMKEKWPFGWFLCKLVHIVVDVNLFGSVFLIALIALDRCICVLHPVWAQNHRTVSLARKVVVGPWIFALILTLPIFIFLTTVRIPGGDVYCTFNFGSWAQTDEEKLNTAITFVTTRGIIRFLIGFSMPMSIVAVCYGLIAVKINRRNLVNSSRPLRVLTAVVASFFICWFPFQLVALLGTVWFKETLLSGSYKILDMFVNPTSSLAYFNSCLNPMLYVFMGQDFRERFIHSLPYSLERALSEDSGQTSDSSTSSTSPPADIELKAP
Description: as §1

[7] = target: T2, FPRL2; conditions: reported in the literature; cited from earlier work; remark: listed apart in the source
[8] = test system: FPRL1-GFP; test: Inhibition of forskolin-increased intracellular cAMP in CHO cells expressing FPRL1-GFP; type: cell-based; conditions: 1 μM forskolin; CHO cells expressing FPRL1-GFP compared with mock CHO cells (vector only)
Description: CHO cells expressing FPRL1-GFP were washed with an assay medium (HBSS (GibcoBRL) supplemented with 0.1% bovine serum albumin and 0.2 mM IBMX) and then cultured at 37° C. in 5% CO2 for 30 minutes. Humanin (Peptide Research Laboratory, Co.) or related substances diluted at each concentration with the assay buffer were added thereto, and then forskolin was added at a final concentration of 1 μM. The cells were cultured at 37° C. in 5% CO2 for 30 minutes. The culture supernatant was discarded, and the amount of cAMP in the cells was measured with a plate reader (ARVO sx multi-label counter, manufactured by Wallac) according to a protocol of a cAMP screen kit (Applied Biosystems).

[9] = test system: nerve cells; conditions: reported in the literature; cited from earlier work

Chain of rFPRL1 (as listed by the source): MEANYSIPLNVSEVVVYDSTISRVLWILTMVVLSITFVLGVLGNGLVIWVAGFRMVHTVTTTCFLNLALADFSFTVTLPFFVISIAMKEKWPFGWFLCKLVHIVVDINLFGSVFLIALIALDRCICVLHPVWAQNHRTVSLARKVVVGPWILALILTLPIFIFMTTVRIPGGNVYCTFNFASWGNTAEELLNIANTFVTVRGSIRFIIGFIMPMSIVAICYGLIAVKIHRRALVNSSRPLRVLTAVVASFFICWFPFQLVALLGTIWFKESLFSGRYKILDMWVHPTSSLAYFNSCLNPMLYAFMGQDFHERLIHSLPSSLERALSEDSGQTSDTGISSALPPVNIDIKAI

Molecule | reaction with rFPRL1 (inhibition of forskolin-increased intracellular cAMP) [4] | reaction with hFPRL1 (inhibition of forskolin-increased intracellular cAMP) [5] | reaction with mFPRL2 (inhibition of forskolin-increased intracellular cAMP) [6] | also measured
CCCCC[C@H](O)/C=C/C=C\C=C\C=C\[C@@H](O)[C@@H](O)CCCC(=O)O [lipoxin A4] | – | – | – | agonist of FPRL1 [1]: Agonists
Aβ42: β-amyloid (1-42), intrinsic substance reported as agonist of FPRL1 | – | – | – | agonist of FPRL1 [1]: agonist
Trp-Lys-Tyr-Met-Val-dMet-NH2 [W-Peptide] | – | – | – | agonist of FPRL2 [2]: agonist
[Gly^14]-humanin: [Gly^14]-human humanin (1-24) consisting of the amino acid sequence represented by SEQ ID NO: 4 (MAPRGFSCLLLLTGEIDLPVKRRA; Human) | react | react | react | reaction with hFPRL2 (inhibition of forskolin-increased intracellular cAMP) [3]: strongly
formyl-Humanin: human humanin (1-24), SEQ ID NO: 3, wherein Met of the N-terminus is formylated | react | – | react | –
formyl-Met-Leu-Phe [fMLF] | – | – | – | reaction of human FPRL2 with fMLF [7]: does not react
humanin: human humanin (1-24) consisting of the amino acid sequence represented by SEQ ID NO: 3 | react | react | react | reaction with hFPRL2 (inhibition of forskolin-increased intracellular cAMP) [3]: strongly; decrease of the amount of intracellular cAMP increased by addition of forskolin [8]: dose-dependent and specific decrease; death of nerve cells into which the familial Alzheimer's disease gene had been introduced [9]: inhibited; nerve apotosis induced by adding β-amyloid [9]: inhibited
mt-formyl-Humanin: human humanin (1-21), SEQ ID NO: 6, wherein Met at the N-terminus is formylated (For-MAPRGFSCLLLLTSEIDLPVK) | react | strongly | react | –
mt-formyl-rattin: rat humanin (1-21), SEQ ID NO: 9, wherein Met at the N-terminus is formylated (For-MAKRGFNCLLLSISEIDLPVK) | react | strongly | react | –
